Results taken from FireProtDB (doi:10.1038/nsb0996-782).

Conditions: Escherichia coli (strain K12); pH 5.1; 25 °C; GdnHCl; NMR; Sodium acetate 100mM; whole UniProt chain shown

B1: Ribonuclease HI wild type, P0A7Y4 (protein)
chain: MLKQVEIFTDGSCLGNPGPGGYGAILRYRGREKTFSAGYTRTTNNRMELMAAIVALEALKEHCEVILSTDSQYVRQGITQWIHNWKKRGWKTADKKPVKNVDLWQRLDAALGQHQIKWEWVKGHAGHPENERCDELARAAAMNPTLEDTGYQVEV
unfolding free energy: 10.5 kcal/mol
